The text below walks through data of publication PMC4661524 (Scientific Reports, 2015).

Where a chain is given by its changes, count along the chain named. Names and notes keep the numbering of the source. Bounds are passed on as bounds.

Common to all, as to details: both partners purified
Experiment [1] addresses T1, biotinylated HLA-DM ectodomain (human, UniProt P28067 27-233; P28068 19-218, biotin on the C-terminal avitag (BirA); which chain carries the avitag is not stated).
T1 construct: HLA-DM alpha chain, human, ectodomain; HLA-DM beta chain, human, ectodomain; Alpha/beta heterodimer; The supplement says only that avitag and flag-tag stand at a C-terminus; they are written on the beta chain for want of a statement; A KT3-tag at the C-terminus of recombinant DM beta is named in the western blot methods (D1:p7); also called bio-DM; sDM-Avi
Description: SPR; BIAcore, 25 C, pH 4.85; biotinylated DM on a streptavidin chip, DOv injected; 80 mM citrate-phosphate, 150 mM NaCl, 0.06% BSA, 0.05% P20; apparent KD from fitted equilibrium RU. Background: In SPR one partner is held on a chip, and binding of the other changes the refractive index at the surface.

Experiment [2] deals with T1, biotinylated HLA-DM ectodomain. Description: SPR; BIAcore, 37 C, pH 6.3; biotinylated DM on a streptavidin chip, DOv injected; 80 mM citrate-phosphate, 150 mM NaCl, 0.06% BSA, 0.05% P20; apparent KD from fitted equilibrium RU.
The target is the same in experiment [3]. Description: SPR; BIAcore, 25 C, pH 6.3 (running buffer pH 6.26); biotinylated DM on a streptavidin chip, untreated DOv injected; 80 mM citrate-phosphate, 150 mM NaCl, 0.06% BSA, 0.05% P20; apparent KD from fitted equilibrium RU.
Experiment [4] shares this target. Kind of experiment: SPR; BIAcore, 25 C, pH 6.3; biotinylated DM on a streptavidin chip; analyte: intact DOv SEC-purified after a pH 4.6 pulse (37 C, 8 min); apparent KD from fitted equilibrium RU.
The target is the same in experiment [5]. Kind of experiment: SPR; BIAcore, 25 C, pH 7.2 (running buffer pH 7.16); biotinylated DM (120-130 RU) on a streptavidin chip, DOv injected; 80 mM citrate-phosphate, 150 mM NaCl, 0.06% BSA, 0.05% P20; apparent KD from fitted equilibrium RU (slow dissociation model).
For experiment [6] the target is unchanged. Description: SPR; BIAcore, 37 C, pH 4.85; biotinylated DM on a streptavidin chip, DOv injected; 80 mM citrate-phosphate, 150 mM NaCl, 0.06% BSA, 0.05% P20; apparent KD from fitted equilibrium RU.
Experiment [7] has the same target. Kind of experiment: SPR; BIAcore, 25 C, pH 5.5 (running buffer pH 5.49); biotinylated DM on a streptavidin chip, DOv injected; 80 mM citrate-phosphate, 150 mM NaCl, 0.06% BSA, 0.05% P20; apparent KD from fitted equilibrium RU.
Experiment [8] has as its target T2, HLA-DM ectodomain of the DM-DOwt complex (human, UniProt P28067 27-233; P28068 19-218).
T2 construct: HLA-DM alpha chain, ectodomain; HLA-DM beta chain, ectodomain; For BLI the DM-DOwt complex was biotinylated; also called DM (in DM-DOwt); DM-DO ectodomains; source: recombinant, purified in complex with DOwt (double SEC-purified DM-DO ectodomains)
Description: SEC; DM-DOwt ectodomains incubated at pH 4.6, 5.4 or 6.3 for the indicated times (4 h, 24 h) or not treated, separated by size exclusion chromatography; fractions western blotted with DO- or DM-specific antibodies. On the technique in general: SEC sorts molecules by how far they enter the pores of the column.

Experiment [9] concerns the target T3, biotinylated DM (soluble HLA-DM, SPR ligand) (human, UniProt P28067 27-233; P28068 19-218, biotin (chain and site not stated) | biotin (chain and site not stated)).
T3 construct: HLA-DM alpha chain, ectodomain; HLA-DM beta chain, ectodomain; captured on a streptavidin chip; also called immobilized DM; source: recombinant, purified
Kind of experiment: SPR; BIAcore; 120–130 RU biotinylated DM on a streptavidin chip, DOv injected (Kinject, 30 μl/min, 5 min); 80 mM citrate-phosphate, 150 mM NaCl, 0.06% BSA, 0.05% P20, pH 4.85, 5.49, 6.26, 7.16; 25 °C or 37 °C; single cycle mode at pH 4.85 with >4 h dissociation; apparent constants (slow dissociation model).

The target of experiment [10] is T4, soluble HLA-DM ectodomain (human, UniProt P28067 27-233; P28068 19-218).
T4 construct: HLA-DM alpha chain, human, ectodomain; HLA-DM beta chain, human, ectodomain; The analyte of the BLI experiments, not biotinylated; also called sDM; soluble DM
T4 sequence (P28067 27-233, chain 1 of 2): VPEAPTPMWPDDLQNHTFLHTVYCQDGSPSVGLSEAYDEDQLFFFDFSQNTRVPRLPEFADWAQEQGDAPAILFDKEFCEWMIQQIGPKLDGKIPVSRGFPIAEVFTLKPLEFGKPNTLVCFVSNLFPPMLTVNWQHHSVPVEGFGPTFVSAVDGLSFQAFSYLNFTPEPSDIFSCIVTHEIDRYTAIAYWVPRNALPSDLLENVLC
T4 sequence (P28068 19-218, chain 2 of 2): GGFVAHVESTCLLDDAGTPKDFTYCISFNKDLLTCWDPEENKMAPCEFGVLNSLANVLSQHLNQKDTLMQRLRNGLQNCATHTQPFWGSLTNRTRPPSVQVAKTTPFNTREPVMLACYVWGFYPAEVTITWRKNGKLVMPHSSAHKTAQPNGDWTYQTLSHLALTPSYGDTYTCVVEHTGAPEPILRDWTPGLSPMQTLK
Description: BLI; Octet QK, 25 C as the table's head says, pH 6.3 (50 mM MES, 150 mM NaCl, 0.01% BSA, 0.002% Tween 20); biotinylated DOv on streptavidin biosensors, soluble DM 6.25-1600 nM; apparent KD from fitted equilibrium wavelength shifts. Background: In BLI a coated tip is dipped into the sample, and binding shifts an interference pattern.

Experiment [11] addresses T4, soluble HLA-DM ectodomain. Description: BLI; Octet QK, 25 C as the table's head says, table row pH 7.2 (kinetic buffer 50 mM HEPES pH 7.4, 150 mM NaCl, 0.01% BSA, 0.002% Tween 20); biotinylated DOv on streptavidin biosensors, soluble DM 6.25-1600 nM; apparent KD from fitted equilibrium wavelength shifts.
The target in experiment [12] is T4, soluble HLA-DM ectodomain. Kind of experiment: BLI; Octet QK, 25 C as the table's head says, pH 5.5 (50 mM citrate, 150 mM NaCl, 0.01% BSA, 0.002% Tween 20); biotinylated DOv on streptavidin biosensors, soluble DM 6.25-1600 nM; apparent KD from fitted equilibrium wavelength shifts.
The target of experiment [13] is T4, soluble HLA-DM ectodomain. Description: BLI; Octet QK, 25 C as the table's head says, table row pH 4.85 (kinetic buffer 50 mM acetate pH 4.7, 150 mM NaCl, 0.01% BSA, 0.002% Tween 20); biotinylated DOv on streptavidin biosensors, soluble DM 6.25-1600 nM; apparent KD from fitted equilibrium wavelength shifts.

T1 sequence (P28067 27-233, chain 1 of 2): as the sequence (P28067 27-233, chain 1 of 2) above
T1 sequence (P28068 19-218, chain 2 of 2): as the sequence (P28068 19-218, chain 2 of 2) above
T3 sequence (P28067 27-233, chain 1 of 2): as the sequence (P28067 27-233, chain 1 of 2) above
T3 sequence (P28068 19-218, chain 2 of 2): as the sequence (P28068 19-218, chain 2 of 2) above
T2 sequence (P28067 27-233, chain 1 of 2): as the sequence (P28067 27-233, chain 1 of 2) above
T2 sequence (P28068 19-218, chain 2 of 2): as the sequence (P28068 19-218, chain 2 of 2) above

B1: stabilized HLA-DO variant ectodomain (alpha P11A) (domain or fragment, human)
MHC II alpha: TKADHMGSYGAAFYQSYGASGQFTHEFDEEQLFSVDLKKSEAVWRLPEFGDFARFDPQGGLAGIAAIKAHLDILVERSNRSRAINVPPRVTVLPKSRVELGQPNILICIVDNIFPPVINITWLRNGQTVTEGVAQTSFYSQPDHLFRKFHYLPFVPSAEDVYDCQVEHWGLDAPLLRHWELQVPIPPPDAME
MHC II beta: TDSPEDFVIQAKADCYFTNGTEKVQFVVRFIFNLEEYVRFDSDVGMFVALTKLGQPDAEQWNSRLDLLERSRQAVDGVCRHNYRLGAPFTVGRKVQPEVTVYPERTPLLHQHNLLHCSVTGFYPGDIKIKWFLNGQEERAGVMSTGPIRNGDWTFQTVVMLEMTPELGHVYTCLVDHSSLLSPVSVEWRAQSEYSWRK
notes: HLA-DO alpha chain, human, ectodomain; HLA-DO beta chain, human, ectodomain; Alpha/beta heterodimer, not biotinylated when used as SPR analyte; The avitag is said to stand at the C-terminus of recombinant DO beta (D1:p7); The 'sz' of the cell line's name may mean leucine zippers; In one experiment the intact fraction after a pH 4.6 pulse (37 C, 8 min, SEC 12-13 ml) was used; also called szDOv-Avi
In the case of B1, the Kd is 148 nM in experiment [1]; 12.6 nM in experiment [2]; 14.1 nM in experiment [3]; 27.5 nM in experiment [4]; 9.4 nM in experiment [5]; 240 nM in [6]. For the same molecule, the Kd in experiment [7] is 21.9 nM.

B2: wild type HLA-DO ectodomain (DOwt) of the DM-DOwt complex (complex, human)
MHC II alpha: B1 MHC II alpha with A11P
MHC II beta: B1 MHC II beta
notes: HLA-DO alpha chain, ectodomain; HLA-DO beta chain, ectodomain; For BLI the DM-DOwt complex was biotinylated; also called wild type DO; source: recombinant, purified in complex with DM (double SEC-purified DM-DO ectodomains)
B2: the binding result in experiment [8] is listed as “binds”.

B3: stabilized HLA-DO variant (DOv), ectodomain with αP11A (complex, human)
MHC II alpha: B1 MHC II alpha
MHC II beta: B1 MHC II beta
notes: HLA-DO alpha chain, ectodomain; HLA-DO beta chain, ectodomain; Also used after pH 4.6 pulses and SEC isolation of the intact portion (assay a3); also called soluble DOv; source: recombinant, expressed and purified alone
Consider B3, for which the “fold increase of KD,app from pH 7.2 to pH 4.7” value in [9] was > 10 fold.

B4: biotinylated stabilized HLA-DO variant ectodomain (alpha P11A) (domain or fragment, human)
MHC II alpha: B1 MHC II alpha
MHC II beta: B1 MHC II beta
modifications: biotin on the C-terminal avitag (BirA)
notes: HLA-DO alpha chain, human, ectodomain; HLA-DO beta chain, human, ectodomain; Same construct as Dm2, biotinylated and held on streptavidin biosensors in BLI; also called bio-DOv; biotinylated DOv
For B4, the Kd in experiment [10] worked out at 17 nM; in experiment [11], 11.3 nM; in experiment [12] it was 26.9 nM; in [13], 233 nM.
